Results: patent publication US12097241B2, “Methods of treating kidney failure, and/or improving or stablizing renal function using modified relaxin polypeptides” (BRISTOL-MYERS SQUIBB COMPANY, priority 2017, dated 2024)
Entries after “also recorded” stand apart in the source; their conditions may differ. Read-outs that look alike come from different tables or passages of the source. Marks after values point to notes of the source that are not given here.

Key:
[1] = Rat renal blood flow studies; assay type: in vivo, Sprague Dawley rats; conditions: 1 mg/kg intravenously
Description: Male Sprague Dawley rats (˜250-300 g) were anesthetized with sodium pentobarbital (50 mg/kg), the trachea was cannulated with PE-205 tubing to maintain airway patency, and temperature was maintained at 37° C. with a heated surgical plate. A 1.4 F pressure catheter (Millar Inc., Houston, TX) was advanced into the right carotid artery to measure aortic blood pressure. The right jugular vein was cannulated with PE-50 tubing for administration of test articles. The left kidney was exposed by a retroperitoneal incision, and a Doppler flow probe (Model 0.5 VB, Transonic System Inc., Ithaca, NY) was attached to the left renal artery to monitor blood flow. Sodium pentobarbital (15 mg/kg, intraperitoneal) was supplemented after completion of these surgical procedures. Following a 10-15 min equilibration, the relaxin was administered at 1 mg/kg intravenously in a dosing volume of 0.15 to 1.82 mL/kg over 30 seconds via an infusion pump (Harvard Apparatus, Holliston, MA). Blood pressure, heart rate and renal blood flow were continuously recorded for 45 min after relaxin administration using a Millar MPVS Ultra Signal Conditioning unit connected to a desktop computer running LabChart 7-Pro data acquisition software (ADInstruments, Dunedin, New Zealand) (Table 5). Table 5. Rat renal blood flow changes (abbreviations as in Table 3).

human RXFP1 receptor = target: T1, human RXFP1 receptor (Homo sapiens, UniProt Q9HBX9); assay: Intracellular cAMP accumulation assay; assay type: cell-based
T1 construct: expressed in transfected cells
T1 sequence (Q9HBX9 1-757): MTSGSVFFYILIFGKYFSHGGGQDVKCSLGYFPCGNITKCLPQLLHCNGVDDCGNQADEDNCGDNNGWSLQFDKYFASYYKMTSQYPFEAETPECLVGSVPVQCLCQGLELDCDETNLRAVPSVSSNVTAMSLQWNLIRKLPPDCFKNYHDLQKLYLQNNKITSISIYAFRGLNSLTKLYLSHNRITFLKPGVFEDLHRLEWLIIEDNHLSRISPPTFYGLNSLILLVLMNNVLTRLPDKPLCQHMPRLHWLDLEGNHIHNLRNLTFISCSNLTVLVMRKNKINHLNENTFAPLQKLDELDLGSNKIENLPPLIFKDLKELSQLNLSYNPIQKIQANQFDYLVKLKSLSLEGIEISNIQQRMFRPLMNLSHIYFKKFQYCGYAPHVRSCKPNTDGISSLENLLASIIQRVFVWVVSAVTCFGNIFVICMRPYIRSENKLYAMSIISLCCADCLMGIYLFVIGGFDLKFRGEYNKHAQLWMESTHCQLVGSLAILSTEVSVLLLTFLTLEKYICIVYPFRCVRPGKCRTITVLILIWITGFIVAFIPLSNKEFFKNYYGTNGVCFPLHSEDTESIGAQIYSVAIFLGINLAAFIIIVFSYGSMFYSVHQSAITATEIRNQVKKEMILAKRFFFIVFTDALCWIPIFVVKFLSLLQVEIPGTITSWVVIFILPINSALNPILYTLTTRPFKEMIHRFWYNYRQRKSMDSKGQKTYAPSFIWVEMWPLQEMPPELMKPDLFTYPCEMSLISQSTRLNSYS

[2] = In vivo pharmacokinetic (PK) studies in rats; design: species or system Sprague-Dawley rats; conditions: rat, male Sprague-Dawley rats, single SC dose 1.0 mg/kg, serum ELISA; for AUC(0-inf): read-out: Rat PK AUC Total; for level at time molar at 24 h: read-out: Rat PK C24
Procedure, shortened: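 Male Sprague-Dawley rats (n=3) given a single 1 mg/kg IV or SC dose of relaxin constructs in 20 mM histidine, 750 mM NaCl, pH 6.0; jugular serum sampled to 72 h. Serum relaxin by ELISA; Cmax, AUCinf, C24 and half-life from non-compartmental analysis of individual profiles.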

| SMILES | % change in RBF over baseline ([1]; anesthetized male Sprague Dawley rats, renal blood flow recorded for 45 min) | effect on renal blood flow (in words) ([1]; rats, 1 mg/kg) | EC50 (human RXFP1 receptor) | AUC(0-inf) [2] | level at time molar at 24 h [2] | EC50 (human RXFP1 receptor; CHO-K1 cells stably expressing human RXFP1, 10 min at 37° C., HTRF cAMP, average, read-out: hRXFP1/CHO-K1 cAMP EC50 (nM, avg)) |
| --- | --- | --- | --- | --- | --- | --- |
| CCCCCCCCCCCCCC(=O)N[C@@H](CCC(=O)NCCO/N=C(\C)c1ccc(C[C@H](N)C(=O)N[C@@H](CC(C)C)C(=O)N[C@@H](Cc2ccc(O)cc2)C(=O)N[C@@H](CO)C(=O)N[C@@H](C)C(=O)N[C@@H](CC(C)C)C(=O)N[C@@H](C)C(=O)N[C@@H](CC(N)=O)C(=O)N[C@@H](CCCCN)C(=O)N[C@H]2CSSC[C@@H]3NC(=O)CNC(=O)[C@H](C(C)C)NC(=O)[C@H](Cc4c[nH]cn4)NC(=O)[C@H](CSSC[C@H](NC(=O)[C@H](CC(C)C)NC(=O)[C@H](CCCCN)NC(=O)[C@@H](NC(=O)[C@@H](NC(=O)[C@H](CCC(=O)O)NC(=O)[C@H](CCC(=O)O)NC(=O)[C@H](CCSC)NC(=O)[C@H](Cc4c[nH]c5ccccc45)NC(=O)[C@H](CO)NC(=O)[C@H](C)N)C(C)C)[C@@H](C)CC)C(=O)NCC(=O)N[C@@H](CCCNC(=N)N)C(=O)N[C@@H](CCC(=O)O)C(=O)N[C@@H](CC(C)C)C(=O)N[C@@H](C(C)C)C(=O)N[C@@H](CCCNC(=N)N)C(=O)N[C@@H](C)C(=O)N[C@@H](CCC(N)=O)C(=O)N[C@@H]([C@@H](C)CC)C(=O)N[C@@H](C)C(=O)N[C@@H]([C@@H](C)CC)C(=O)N[C@H](C(=O)NCC(=O)N[C@@H](CCSC)C(=O)N[C@@H](CO)C(=O)N[C@H](C(=O)N[C@@H](Cc4c[nH]c5ccccc45)C(=O)N[C@@H](CO)C(=O)O)[C@@H](C)O)CSSC[C@@H](C(=O)O)NC(=O)[C@H](Cc4ccccc4)NC(=O)[C@H](CCCNC(=N)N)NC(=O)[C@H](C)NC(=O)[C@H](CC(C)C)NC(=O)[C@H](CO)NC(=O)[C@H](CCCNC(=N)N)NC(=O)[C@H](CCCCN)NC(=O)[C@H]([C@@H](C)O)NC3=O)NC2=O)cc1)C(=O)O [AQ1-Glu-C13-CH3] | −27^b % | impaired renal blood flow; also recorded: decreased renal blood flow |  |  |  |  |
| CC[C@H](C)[C@@H]1NC(=O)[C@H](C)NC(=O)[C@H]([C@@H](C)CC)NC(=O)[C@H](CCC(N)=O)NC(=O)[C@H](C)NC(=O)[C@H](CCCNC(=N)N)NC(=O)[C@H](C(C)C)NC(=O)[C@H](CC(C)C)NC(=O)[C@H](CCC(=O)O)NC(=O)[C@H](CCCNC(=N)N)NC(=O)CNC(=O)[C@@H](NC(=O)[C@H](CC(C)C)NC(=O)[C@H](CCCCN)NC(=O)[C@@H](NC(=O)[C@@H](NC(=O)[C@H](CCC(=O)O)NC(=O)[C@H](CCC(=O)O)NC(=O)[C@H](CCSC)NC(=O)[C@H](Cc2c[nH]c3ccccc23)NC(=O)[C@H](CO)NC(=O)[C@H](C)N)C(C)C)[C@@H](C)CC)CSSC[C@@H]2NC(=O)[C@@H](NC(=O)[C@H](CCCCN)NC(=O)[C@H](CC(N)=O)NC(=O)[C@H](C)NC(=O)[C@H](CC(C)C)NC(=O)[C@H](C)NC(=O)[C@H](CO)NC(=O)[C@H](Cc3ccc(O)cc3)NC(=O)[C@H](CC(C)C)NC(=O)[C@@H](N)Cc3ccc(C(C)=NOCCNC(=O)[C@@H](CCCCN)NC(=O)[C@@H](CCCCN)NC(=O)[C@@H](CCCCN)NC(=O)[C@@H](CCCCN)NC(=O)[C@@H](CCCCN)NC(=O)[C@@H](CCCCN)NC(=O)CC[C@H](NC(=O)CCCCCCCCCCCCC(=O)O)C(=O)O)cc3)CSSC[C@H](NC(=O)CNC(=O)[C@H](C(C)C)NC(=O)[C@H](Cc3c[nH]cn3)NC2=O)C(=O)N[C@@H]([C@@H](C)O)C(=O)N[C@@H](CCCCN)C(=O)N[C@@H](CCCNC(=N)N)C(=O)N[C@@H](CO)C(=O)N[C@@H](CC(C)C)C(=O)N[C@@H](C)C(=O)N[C@@H](CCCNC(=N)N)C(=O)N[C@@H](Cc2ccccc2)C(=O)N[C@H](C(=O)O)CSSC[C@@H](C(=O)NCC(=O)N[C@@H](CCSC)C(=O)N[C@@H](CO)C(=O)N[C@H](C(=O)N[C@@H](Cc2c[nH]c3ccccc23)C(=O)N[C@@H](CO)C(=O)O)[C@@H](C)O)NC1=O [AQ1-dKdKdKdKdKdK-Glu^γ-C13-COOH] |  |  | 0.1 nM | 0.0312 µM·h | 0.06 nM |  |
| CC[C@H](C)[C@@H]1NC(=O)[C@H](C)NC(=O)[C@H]([C@@H](C)CC)NC(=O)[C@H](CCC(N)=O)NC(=O)[C@H](C)NC(=O)[C@H](CCCNC(=N)N)NC(=O)[C@H](C(C)C)NC(=O)[C@H](CC(C)C)NC(=O)[C@H](CCC(=O)O)NC(=O)[C@H](CCCNC(=N)N)NC(=O)CNC(=O)[C@@H](NC(=O)[C@H](CC(C)C)NC(=O)[C@H](CCCCN)NC(=O)[C@@H](NC(=O)[C@@H](NC(=O)[C@H](CCC(=O)O)NC(=O)[C@H](CCC(=O)O)NC(=O)[C@H](CCSC)NC(=O)[C@H](Cc2c[nH]c3ccccc23)NC(=O)[C@H](CO)NC(=O)[C@H](C)N)C(C)C)[C@@H](C)CC)CSSC[C@@H]2NC(=O)[C@@H](NC(=O)[C@H](CCCCN)NC(=O)[C@H](CC(N)=O)NC(=O)[C@H](C)NC(=O)[C@H](CC(C)C)NC(=O)[C@H](C)NC(=O)[C@H](CO)NC(=O)[C@H](Cc3ccc(O)cc3)NC(=O)[C@H](CC(C)C)NC(=O)[C@@H](N)Cc3ccc(C(C)=NOCCNC(=O)[C@H](CC(=O)O)NC(=O)[C@H](CCCNC(=N)N)NC(=O)[C@H](CC(=O)O)NC(=O)[C@H](CC(=O)O)NC(=O)[C@H](CCCNC(=N)N)NC(=O)[C@H](CC(=O)O)NC(=O)CCCCCCCCCCCCC(=O)O)cc3)CSSC[C@H](NC(=O)CNC(=O)[C@H](C(C)C)NC(=O)[C@H](Cc3c[nH]cn3)NC2=O)C(=O)N[C@@H]([C@@H](C)O)C(=O)N[C@@H](CCCCN)C(=O)N[C@@H](CCCNC(=N)N)C(=O)N[C@@H](CO)C(=O)N[C@@H](CC(C)C)C(=O)N[C@@H](C)C(=O)N[C@@H](CCCNC(=N)N)C(=O)N[C@@H](Cc2ccccc2)C(=O)N[C@H](C(=O)O)CSSC[C@@H](C(=O)NCC(=O)N[C@@H](CCSC)C(=O)N[C@@H](CO)C(=O)N[C@H](C(=O)N[C@@H](Cc2c[nH]c3ccccc23)C(=O)N[C@@H](CO)C(=O)O)[C@@H](C)O)NC1=O [AQ1-DRDDRD-C13-COOH] |  |  |  | 1.01 µM·h | 0.38 nM | 0.32 nM |
| CC[C@H](C)[C@@H]1NC(=O)[C@H](C)NC(=O)[C@H]([C@@H](C)CC)NC(=O)[C@H](CCC(N)=O)NC(=O)[C@H](C)NC(=O)[C@H](CCCNC(=N)N)NC(=O)[C@H](C(C)C)NC(=O)[C@H](CC(C)C)NC(=O)[C@H](CCC(=O)O)NC(=O)[C@H](CCCNC(=N)N)NC(=O)CNC(=O)[C@@H](NC(=O)[C@H](CC(C)C)NC(=O)[C@H](CCCCN)NC(=O)[C@@H](NC(=O)[C@@H](NC(=O)[C@H](CCC(=O)O)NC(=O)[C@H](CCC(=O)O)NC(=O)[C@H](CCSC)NC(=O)[C@H](Cc2c[nH]c3ccccc23)NC(=O)[C@H](CO)NC(=O)[C@H](C)N)C(C)C)[C@@H](C)CC)CSSC[C@@H]2NC(=O)[C@@H](NC(=O)[C@H](CCCCN)NC(=O)[C@H](CC(N)=O)NC(=O)[C@H](C)NC(=O)[C@H](CC(C)C)NC(=O)[C@H](C)NC(=O)[C@H](CO)NC(=O)[C@H](Cc3ccc(O)cc3)NC(=O)[C@H](CC(C)C)NC(=O)[C@@H](N)Cc3ccc(C(C)=NOCCNC(=O)CNC(=O)CNC(=O)CNC(=O)CNC(=O)[C@@H]4CCCN4C(=O)CC[C@H](NC(=O)CCCCCCCCCCCCCC(=O)O)C(=O)O)cc3)CSSC[C@H](NC(=O)CNC(=O)[C@H](C(C)C)NC(=O)[C@H](Cc3c[nH]cn3)NC2=O)C(=O)N[C@@H]([C@@H](C)O)C(=O)N[C@@H](CCCCN)C(=O)N[C@@H](CCCNC(=N)N)C(=O)N[C@@H](CO)C(=O)N[C@@H](CC(C)C)C(=O)N[C@@H](C)C(=O)N[C@@H](CCCNC(=N)N)C(=O)N[C@@H](Cc2ccccc2)C(=O)N[C@H](C(=O)O)CSSC[C@@H](C(=O)NCC(=O)N[C@@H](CCSC)C(=O)N[C@@H](CO)C(=O)N[C@H](C(=O)N[C@@H](Cc2c[nH]c3ccccc23)C(=O)N[C@@H](CO)C(=O)O)[C@@H](C)O)NC1=O [AQ1-GGGGP-Glu^γ-C14-COOH] |  |  | 0.39 nM | 2.18 µM·h | 3.9 nM |  |
